The assay concerns the target T1, WT-RBD (receptor-binding domain of the SARS-CoV-2 wild-type, Wuhan-Hu-1, spike protein) (SARS-CoV-2, UniProt P0DTC2).
T1 construct: not shown: His6, C-terminal, kept
Description: BLI. The note with it: both partners purified.

The term Kd denotes the free concentration of one partner at which half of the binding sites on the other are occupied at equilibrium, for simple one-to-one binding. Low values mean higher affinity, high ones lower affinity.

B1: CC25.4 Fab (Fab, V domains shown)
VH: QVQLVQSGAEVKKPGASVKVSCKASGYTFTDYFLHWVRQAPGQGLEWMGWINPDSGGTNYAQRFQGRVTMTRDTSISTAYMEVSRLRSDDTAVYYCARDNERYQMQNYYHYYGMDVWGQGTTVTVVS
VL: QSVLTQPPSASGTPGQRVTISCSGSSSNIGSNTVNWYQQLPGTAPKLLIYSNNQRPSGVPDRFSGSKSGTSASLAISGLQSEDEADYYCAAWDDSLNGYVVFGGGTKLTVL
notes: also called class V antibody; source: ExpiCHO cells, co-transfected, purified (CaptureSelect CH1-XL, SEC)
As to B1, the Kd is 0.4 nM.

These data come from paper doi:10.1101/2025.11.18.25340485 (medRxiv, 2025).
